# Experimental data published in article doi:10.1101/2024.08.22.609182.
# Target: AIFM1 OM (obligate monomeric AIFM1 variant, triple mutant in the dimerisation interface) (human) (UniProt O95831)
# Experiment: mass photometry
# Chain of AIFM1 OM (obligate monomeric AIFM1 variant, triple mutant in the dimerisation interface) (human) (O95831 102-613, change not shown): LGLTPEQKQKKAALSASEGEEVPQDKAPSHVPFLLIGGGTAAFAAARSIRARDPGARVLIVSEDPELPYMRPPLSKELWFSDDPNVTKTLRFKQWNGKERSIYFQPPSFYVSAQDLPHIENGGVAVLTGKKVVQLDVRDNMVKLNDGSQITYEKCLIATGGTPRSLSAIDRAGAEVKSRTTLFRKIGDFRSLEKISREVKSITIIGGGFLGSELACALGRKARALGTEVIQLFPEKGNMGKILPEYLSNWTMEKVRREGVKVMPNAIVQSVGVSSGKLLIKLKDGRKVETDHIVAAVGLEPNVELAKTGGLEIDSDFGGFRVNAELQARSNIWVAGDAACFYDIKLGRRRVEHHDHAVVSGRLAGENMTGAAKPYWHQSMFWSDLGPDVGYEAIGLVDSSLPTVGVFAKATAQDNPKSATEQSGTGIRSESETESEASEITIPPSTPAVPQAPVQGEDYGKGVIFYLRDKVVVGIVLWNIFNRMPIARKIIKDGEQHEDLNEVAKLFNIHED
substance,measurement,value
"adenylate kinase 2 (AK2), recombinant human (from UniProt P54819 1-239) (enzyme)",stoichiometry N (AK2 per AIFM1 (printed as 1:1)),1
